Where a chain is given by its changes, count along the chain named.
Columns and labels:
[1] = tested on: T1, HCV-P preferred substrate construct (DEMEECASHL)
T1 sequence: DEMEECASHL

[2] = biological target: human AblTK preferred substrate construct
[3] = biological target: T2, Aga2 substrate fusion polypeptide with HCV-P counter selection sequence and TEV-P selection substrate ENLYFQS
T2 chain: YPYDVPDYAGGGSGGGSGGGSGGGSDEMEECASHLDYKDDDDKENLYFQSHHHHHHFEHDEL

[4] = biological target: T3, TENLYFESGTRRW peptide substrate
T3 chain: TENLYFESGTRRW

[5] = biological target: T4, TENLYFHSGTRRW peptide substrate
T4 chain: TENLYFHSGTRRW

[6] = biological target: T5, human granzyme K preferred substrate construct (CGYGPKKKRKVGG)
T5 chain: CGYGPKKKRKVGG

Molecule: hepatitis C protease (HCV-P)
- YESS two-color FACS (PE / FITC) [1]: displayed relatively similar PE but low FITC signals by FACS compared to the controls lacking proteases

B1: human Abelson tyrosine kinase (AblTK) (protein)
chain: SPNYDKWEMERTDITMKHKLGGGQYGEVYEGVWKKYSLTVAVKTLKEDTMEVEEFLKEAAVMKEIKHPNLVQLLGVCTREPPFYIITEFMTYGNLLDYLRECNRQEVNAVVLLYMATQISSAMEYLEKKNFIHRDLAARNCLVGENHLVKVADFGLSRLMTGDTYTAHAGAKFPIKWTAPESLAYNKFSIKSDVWAFGVLLWEIATYGMSPYPGIDLSQVYELLEKDYRMERPEGCPEKVYELMRACWQWNPSDRPSFAEIHQAFETMFQESSISDEVEKELGK
- YESS FACS (Alexa Fluor 647 anti-phosphotyrosine / anti-6xHis-FITC) [2]: displayed relatively similar FITC but high Alexa Fluor@647 signals by FACS

B2: TEV-P anchored with a C-terminal ER retention sequence, expressed in the yeast ER (protein)
chain: SLFKGPRDYNPISSTICHLTNESDGHTTSLYGIGFGPFIITNKHLFRRNNGTLLVQSLHGVFKVKNTTTLQQHLIDGRDMIIIRMPKDFPPFPQKLKFREPQREERICLVTTNFQTKSMSSMVSDTSCTFPSSDGIFWKHWIQTKDGQCGSPLVSTRDGFIVGIHSASNFTNTNNYFTSVPKNFMELLTNQEAQQWVSGWRLNADSVLWGGHKVFMPKPEEPFQPVKEATQLMNFEHDEL
- YESS two-color FACS (anti-FLAG-PE / anti-6xHis-FITC) [3]: high PE but low FITC fluorescence

B3: TEV-PE10, purified (protein)
chain: HHHHHHSLFKGPRDYNPISSTICHLTNESDGHTTSLYGIGFGPFIITNKHLFRRNNGTLLVQSLHGVFKVKNTTTLQQHLIDGRDMIIIRMPKDFPPFPQKLKFREPQREERICLVTTNFQTKRMSSMVSDTSCTFPSSDGIFWKHWIQTKRGQCGSPLVSTRDGFIVGIHSASNFANTNKYFTSVPKNFMELLTNQEAQQWVSGWRLNADSVLWGGHKVFIPKPEEPFQPVKEATQLMN
- KM [4]: 12.8 µM
- fold higher kcat/KM on TENLYFESGTRRW versus […] [4]: 13-fold higher kcat/KM value
- kcat [4]: 0.0255 s⁻¹
- kcat/KM [4]: 2060 M⁻¹ s⁻¹
- reversal of substrate specificity compared to TEV-P [4]: 5000-fold reversal of substrate specificity compared to TEV-P

B4: TEV-PH21, purified (protein)
chain: B3 chain with T21A, R124S, T150A, R152P, S157C, S172T, S174A, K181N, I222M
- KM [5]: 250 µM
- fold higher kcat/KM on TENLYFHSGTRRW versus […] [5]: 7 fold
- kcat [5]: 0.0375 s⁻¹
- kcat/KM [5]: 150 M⁻¹ s⁻¹
- reversal of substrate specificity compared to TEV-P [5]: 1100-fold reversal of substrate specificity compared to TEV-P

B5: wild-type TEV protease (TEV-P), purified (protein)
chain: B3 chain with R124S, R152D, A177T, K181N, I222M
- KM [4]: 1930 µM
- fold by which kcat/KM on […] exceeds kcat/KM on TENLYFESGTRRW [4]: 375-fold
- kcat [4]: 0.00609 s⁻¹
- kcat/KM [4]: 3.14 M⁻¹ s⁻¹
- KM [5]: 640 µM
- fold by which kcat/KM on […] exceeds kcat/KM on TENLYFHSGTRRW [5]: 150-fold
- kcat [5]: 0.00493 s⁻¹
- kcat/KM [5]: 7.55 M⁻¹ s⁻¹

B6: human granzyme K protease (GrK) (protein)
chain: IIGGKEVSPHSRPFMASIQYGGHHVCGGVLIDPQWVLTAAHCQYRFTKGQSPTVVLGAHSLSKNEASKQTLEIKKFIPFSRVTSDPQSNDIMLVKLQTAAKLNKHVKMLHIRSKTSLRSGTKCKVTGWGATDPDSLRPSDTLREVTVTVLSRKLCNSQSYYNGDPFITKDMVCAGDAKGQKDSCKGDSGGPLICKGVFHAIVSGGHECGVATKPGIYTLLTKKYQTWIKSNLVPPHTN
- YESS two-color FACS (PE / FITC) [6]: displayed relatively similar PE but low FITC signals by FACS compared to the controls lacking proteases

— patent publication US20140017764
